Literature values as cited in publication PMC6163503.

Columns and labels:
[1] = target: JAK2 catalytic domain (Homo sapiens) (UniProt O60674); assay: SPR
[2] = target: Aminopeptidase N (Homo sapiens) (UniProt P15144)
Sequence of UniProt P15144 (P15144 2-967): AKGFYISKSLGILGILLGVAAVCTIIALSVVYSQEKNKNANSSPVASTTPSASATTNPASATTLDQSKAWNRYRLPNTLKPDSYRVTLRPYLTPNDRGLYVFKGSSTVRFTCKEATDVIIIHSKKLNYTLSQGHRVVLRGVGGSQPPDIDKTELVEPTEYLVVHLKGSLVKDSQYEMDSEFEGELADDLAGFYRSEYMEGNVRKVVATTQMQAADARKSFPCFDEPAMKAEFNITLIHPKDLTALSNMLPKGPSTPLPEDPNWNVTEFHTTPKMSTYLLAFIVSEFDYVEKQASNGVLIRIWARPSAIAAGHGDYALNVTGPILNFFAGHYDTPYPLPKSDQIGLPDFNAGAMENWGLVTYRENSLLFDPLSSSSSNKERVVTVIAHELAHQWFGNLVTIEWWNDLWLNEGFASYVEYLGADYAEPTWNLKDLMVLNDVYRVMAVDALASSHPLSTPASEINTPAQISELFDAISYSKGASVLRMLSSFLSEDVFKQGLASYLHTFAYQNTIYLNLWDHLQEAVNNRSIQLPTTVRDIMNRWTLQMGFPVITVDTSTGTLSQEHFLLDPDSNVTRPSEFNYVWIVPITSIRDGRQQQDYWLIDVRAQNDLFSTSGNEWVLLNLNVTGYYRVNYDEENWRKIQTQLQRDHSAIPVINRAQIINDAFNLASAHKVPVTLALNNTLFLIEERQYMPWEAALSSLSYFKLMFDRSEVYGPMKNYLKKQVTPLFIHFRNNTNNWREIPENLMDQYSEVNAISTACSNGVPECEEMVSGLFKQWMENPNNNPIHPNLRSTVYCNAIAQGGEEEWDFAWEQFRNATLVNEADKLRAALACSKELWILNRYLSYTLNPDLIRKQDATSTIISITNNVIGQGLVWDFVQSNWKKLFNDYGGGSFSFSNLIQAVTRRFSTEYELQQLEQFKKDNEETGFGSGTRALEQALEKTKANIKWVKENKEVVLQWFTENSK

Sequence of UniProt O60674 (O60674 849-1124): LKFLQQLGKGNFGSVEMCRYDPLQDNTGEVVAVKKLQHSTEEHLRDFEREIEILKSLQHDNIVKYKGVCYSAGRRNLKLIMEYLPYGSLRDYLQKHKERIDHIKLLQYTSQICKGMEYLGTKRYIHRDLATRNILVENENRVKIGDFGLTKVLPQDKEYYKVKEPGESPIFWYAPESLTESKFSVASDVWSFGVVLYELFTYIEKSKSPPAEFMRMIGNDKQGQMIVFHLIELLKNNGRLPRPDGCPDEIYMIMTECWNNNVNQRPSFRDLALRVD

Row | Kd [1] [µM] | Ki [2] [µM] | Substance
1 | 2.03 |  | SOCS3 KIR peptide KIR (from UniProt O14543)
2 |  | 24.7 | cyc-LHSPW
3 | 1.86 |  | SOCS3 KIRESS peptide KIRESS (from UniProt O14543)
4 | > 1000 |  | SOCS3 ESS peptide ESS (from UniProt O14543)
